Experimental findings from patent US20200317768A1 (published 2020) are described below.

Assay in all cases: SPR (Biacore), KD of SG1 / KD of variant;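 note: relative to parent M103205H795-SG1 carrying the SG1 human heavy chain constant region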
Background: Surface plasmon resonance follows binding to a sensor surface in real time, without labels.

Test [1] deals with T1, cynomolgus monkey FcγRIIa1 extracellular domain, C-terminal His-tag (cynomolgus monkey).
T1 construct: also called cyno FcγRIIa1; cynoFcgRIIa1; not shown: His-tag added to C-terminus
T1 chain: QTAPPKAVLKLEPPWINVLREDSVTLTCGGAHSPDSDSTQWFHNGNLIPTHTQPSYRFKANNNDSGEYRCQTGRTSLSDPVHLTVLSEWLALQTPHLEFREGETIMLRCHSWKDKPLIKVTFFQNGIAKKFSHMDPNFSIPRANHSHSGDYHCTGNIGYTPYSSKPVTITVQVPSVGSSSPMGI

Test [2] deals with T2, human FcγRIIIaV extracellular domain, C-terminal His-tag (human, UniProt P08637 17-208).
T2 construct: also called FcgRIIIaV; not shown: His-tag added to C-terminus

The target of test [3] is T3, cynomolgus monkey FcγRIIa2 extracellular domain, C-terminal His-tag (cynomolgus monkey).
T3 construct: also called cyno FcγRIIa2; cynoFcgRIIa2; not shown: His-tag added to C-terminus
T3 chain: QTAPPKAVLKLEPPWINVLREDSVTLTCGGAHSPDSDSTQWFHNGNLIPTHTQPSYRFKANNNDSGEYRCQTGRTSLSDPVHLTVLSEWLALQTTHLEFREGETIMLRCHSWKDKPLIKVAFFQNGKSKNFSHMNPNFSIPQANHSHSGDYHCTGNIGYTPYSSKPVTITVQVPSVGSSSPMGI

Test [4] concerns the target T4, cynomolgus monkey FcγRIIIaS extracellular domain, C-terminal His-tag (cynomolgus monkey, UniProt A3RFZ7 21-206 (rhesus entry)).
T4 construct: also called cyno FcγRIIIaS; cynoFcγRIIIaS; not shown: His-tag added to C-terminus

Test [5] has as its target T5, human FcγRIIaR extracellular domain, C-terminal His-tag (human, UniProt P12318 34-217).
T5 construct: also called human FcγRIIa (type R); FcgRIIaR; not shown: His-tag added to C-terminus
T5 chain: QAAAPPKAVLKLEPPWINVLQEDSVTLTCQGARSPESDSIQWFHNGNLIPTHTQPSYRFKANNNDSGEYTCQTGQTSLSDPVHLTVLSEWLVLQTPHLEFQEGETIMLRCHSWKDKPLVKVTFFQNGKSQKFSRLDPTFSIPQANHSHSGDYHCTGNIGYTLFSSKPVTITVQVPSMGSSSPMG

For test [6], the target named is T6, human FcγRIIaH extracellular domain, C-terminal His-tag (human, UniProt P12318 34-217).
T6 construct: also called human FcγRIIa (type H); FcgRIIaH; not shown: His-tag added to C-terminus
T6 sequence: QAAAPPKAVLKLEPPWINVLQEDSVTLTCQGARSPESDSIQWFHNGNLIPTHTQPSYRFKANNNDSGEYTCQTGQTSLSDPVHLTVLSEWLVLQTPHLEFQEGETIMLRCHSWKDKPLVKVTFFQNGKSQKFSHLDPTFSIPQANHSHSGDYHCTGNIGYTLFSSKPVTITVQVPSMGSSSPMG

In test [7] the target is T7, cynomolgus monkey FcγRIIb extracellular domain, C-terminal His-tag (cynomolgus monkey).
T7 construct: also called cyno FcγRIIb; cynoFcγRIIb; not shown: His-tag added to C-terminus
T7 chain: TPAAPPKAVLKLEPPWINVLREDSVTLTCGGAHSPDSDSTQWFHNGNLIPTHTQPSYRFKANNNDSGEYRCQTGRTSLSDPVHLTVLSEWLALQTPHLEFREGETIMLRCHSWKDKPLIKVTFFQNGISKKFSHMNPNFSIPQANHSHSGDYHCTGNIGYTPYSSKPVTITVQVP

T4 sequence (A3RFZ7 21-206): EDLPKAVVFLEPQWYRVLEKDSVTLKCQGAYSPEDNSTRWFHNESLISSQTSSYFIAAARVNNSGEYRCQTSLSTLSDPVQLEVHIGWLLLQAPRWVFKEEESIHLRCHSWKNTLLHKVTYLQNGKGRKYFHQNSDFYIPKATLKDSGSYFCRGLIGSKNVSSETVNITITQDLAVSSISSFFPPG
T2 sequence (P08637 17-208 F176V): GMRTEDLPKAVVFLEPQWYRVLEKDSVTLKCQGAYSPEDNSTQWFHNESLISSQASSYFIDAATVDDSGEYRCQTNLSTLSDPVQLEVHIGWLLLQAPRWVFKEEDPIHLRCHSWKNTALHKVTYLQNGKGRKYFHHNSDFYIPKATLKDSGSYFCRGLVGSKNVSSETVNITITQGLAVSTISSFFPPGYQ

B1: M103205H795-MY281/M103202L889-SK1 (antibody, human IgG1, kappa)
heavy: QVTLKESGPVLVKPTETLTLTCTVSGIDLSHDDISWVRQAPGKGLEWVGIISYAGSTYYASWAKGRLTISKDTSKNQVVLTMTNMDPVDTATYYCARGVPAYSHGGDLWGQGTLVTVSSASTKGPSVFPLAPSSKSTSGGTAALGCLVKDYFPEPVTVSWNSGALTSGVHTFPAVLQSSGLYSLSSVVTVPSSSLGTQTYICNVNHKPSNTKVDKKVEPKSCDKTHTCPPCPAPELLQGPSVFLFPPKPKDTLMISRTPEVTCVVVDVSDEDPEVKFNWYVDGVEVHNAKTKPREELYNSTYRVVSVLTVLHQDWLNGKEYKCKVSNKALPKPIEKTISKAKGQPREPQVYTLPPSREEMTKNQVSLTCLVKGFYPSDIAVEWESNGQPENNYKTTPPVLDSDGSFFLYSKLTVDKSRWQQGNVFSCSVMHEALHNHYTQKSLSLSP
light: DIVMTQSPATLSLSPGERATLSCTSSQSVYHANWLSWFQQKPGQPPKLLIYWASTLAYGVPSRFSGSGSGTDFTLTISSLQPEDAATYYCAGGYGGGRYAFGQGTKVEIKRTVAAPSVFIFPPSDEQLKSGTASVVCLLNNFYPREAKVQWKVDNALQSGNSQESVTEQDSKDSTYSLSSTLTLSKADYEKHKVYACEVTHQGLSSPVTKSFNRGEC
For B1, the “KD fold (SG1 = 1)” value in test [1] stood at 1.7 fold; in test [2], 0.39 fold; in test [3], 2 fold; in test [4], 0.49 fold; in test [5], 2.8 fold; in test [6] it was 3.3 fold. For the same molecule, the “KD fold (SG1 = 1)” value in test [7] was 2.9 fold.

B2: M103205H795-MY309/M103202L889-SK1 (antibody, human IgG1, kappa)
heavy: QVTLKESGPVLVKPTETLTLTCTVSGIDLSHDDISWVRQAPGKGLEWVGIISYAGSTYYASWAKGRLTISKDTSKNQVVLTMTNMDPVDTATYYCARGVPAYSHGGDLWGQGTLVTVSSASTKGPSVFPLAPSSKSTSGGTAALGCLVKDYFPEPVTVSWNSGALTSGVHTFPAVLQSSGLYSLSSVVTVPSSSLGTQTYICNVNHKPSNTKVDKKVEPKSCDKTHTCPPCPAPELLTGPSVFLFPPKPKDTLMISRTPEVTCVVVDVSEEDPEVKFNWYVDGVEVHNAKTKPREEQYNSTYRVVSVLTVLHQDWLNGKEYKCKVSNKALPKPIEKTISKAKGQPREPQVYTLPPSREEMTKNQVSLTCLVKGFYPSDIAVEWESNGQPENNYKTTPMVLDSDGSFFLYSKLTVDKSRWQQGNVFSCSVMHEALHNHYTQKSLSLSP
light: DIVMTQSPATLSLSPGERATLSCTSSQSVYHANWLSWFQQKPGQPPKLLIYWASTLAYGVPSRFSGSGSGTDFTLTISSLQPEDAATYYCAGGYGGGRYAFGQGTKVEIKRTVAAPSVFIFPPSDEQLKSGTASVVCLLNNFYPREAKVQWKVDNALQSGNSQESVTEQDSKDSTYSLSSTLTLSKADYEKHKVYACEVTHQGLSSPVTKSFNRGEC
Turning to B2, the “KD fold (SG1 = 1)” value in test [1] is 1.3 fold; in test [2], 0.19 fold; in test [3] it was 2 fold; in test [4], 0.3 fold; in test [5] it was 4.3 fold; in test [6], 4.9 fold. In addition, in test [7], the “KD fold (SG1 = 1)” value is 2.9 fold.

B3: M103205H795-MY292/M103202L889-SK1 (antibody, human IgG1, kappa)
heavy: QVTLKESGPVLVKPTETLTLTCTVSGIDLSHDDISWVRQAPGKGLEWVGIISYAGSTYYASWAKGRLTISKDTSKNQVVLTMTNMDPVDTATYYCARGVPAYSHGGDLWGQGTLVTVSSASTKGPSVFPLAPSSKSTSGGTAALGCLVKDYFPEPVTVSWNSGALTSGVHTFPAVLQSSGLYSLSSVVTVPSSSLGTQTYICNVNHKPSNTKVDKKVEPKSCDKTHTCPPCPAPELLGYPSVFLFPPKPKDTLMISRTPEVTCVVVDVSDEDPEVKFNWYVDGVEVHNAKTKPREELYNSTYRVVSVLTVLHQDWLNGKEYKCKVSNKALPKPIEKTISKAKGQPREPQVYTLPPSREEMTKNQVSLTCLVKGFYPSDIAVEWESNGQPENNYKTTPMVLDSDGSFFLYSKLTVDKSRWQQGNVFSCSVMHEALHNHYTQKSLSLSP
light: DIVMTQSPATLSLSPGERATLSCTSSQSVYHANWLSWFQQKPGQPPKLLIYWASTLAYGVPSRFSGSGSGTDFTLTISSLQPEDAATYYCAGGYGGGRYAFGQGTKVEIKRTVAAPSVFIFPPSDEQLKSGTASVVCLLNNFYPREAKVQWKVDNALQSGNSQESVTEQDSKDSTYSLSSTLTLSKADYEKHKVYACEVTHQGLSSPVTKSFNRGEC
For B3, the “KD fold (SG1 = 1)” value in test [1] was 2.1 fold; in test [2], 0.03 fold; in test [3] it was 2 fold; in test [4] it was 0.05 fold; in test [5] it was 14.5 fold; in test [6] it was 0.7 fold. Also, the “KD fold (SG1 = 1)” value in test [7] turned out to be 4 fold.

B4: M103205H795-MY308/M103202L889-SK1 (antibody, human IgG1, kappa)
heavy: QVTLKESGPVLVKPTETLTLTCTVSGIDLSHDDISWVRQAPGKGLEWVGIISYAGSTYYASWAKGRLTISKDTSKNQVVLTMTNMDPVDTATYYCARGVPAYSHGGDLWGQGTLVTVSSASTKGPSVFPLAPSSKSTSGGTAALGCLVKDYFPEPVTVSWNSGALTSGVHTFPAVLQSSGLYSLSSVVTVPSSSLGTQTYICNVNHKPSNTKVDKKVEPKSCDKTHTCPPCPAPELLTGPSVFLFPPKPKDTLMISRTPEVTCVVVDVSEEDPEVKFNWYVDGVEVHNAKTKPREEQYNSTYRVVSVLTVLHQDWLNGKEYKCKVSNKALPKPIEKTISKAKGQPREPQVYTLPPSREEMTKNQVSLTCLVKGFYPSDIAVEWESNGQPENNYKTTPPVLDSDGSFFLYSKLTVDKSRWQQGNVFSCSVMHEALHNHYTQKSLSLSP
light: DIVMTQSPATLSLSPGERATLSCTSSQSVYHANWLSWFQQKPGQPPKLLIYWASTLAYGVPSRFSGSGSGTDFTLTISSLQPEDAATYYCAGGYGGGRYAFGQGTKVEIKRTVAAPSVFIFPPSDEQLKSGTASVVCLLNNFYPREAKVQWKVDNALQSGNSQESVTEQDSKDSTYSLSSTLTLSKADYEKHKVYACEVTHQGLSSPVTKSFNRGEC
For B4, the “KD fold (SG1 = 1)” value amounted to 1 fold in test [1]; 0.03 fold in test [2]; 1.9 fold in test [3]; 0.16 fold in test [4]; 1.3 fold in test [5]; 1.5 fold in test [6]. Besides, the “KD fold (SG1 = 1)” value in test [7] stood at 1.2 fold.

B5: M103205H795-MY293/M103202L889-SK1 (antibody, human IgG1, kappa)
heavy: QVTLKESGPVLVKPTETLTLTCTVSGIDLSHDDISWVRQAPGKGLEWVGIISYAGSTYYASWAKGRLTISKDTSKNQVVLTMTNMDPVDTATYYCARGVPAYSHGGDLWGQGTLVTVSSASTKGPSVFPLAPSSKSTSGGTAALGCLVKDYFPEPVTVSWNSGALTSGVHTFPAVLQSSGLYSLSSVVTVPSSSLGTQTYICNVNHKPSNTKVDKKVEPKSCDKTHTCPPCPAPELLGYPSVFLFPPKPKDTLMISRTPEVTCVVVDVSEEDPEVKFNWYVDGVEVHNAKTKPREELYNSTYRVVSVLTVLHQDWLNGKEYKCKVSNKALPKPIEKTISKAKGQPREPQVYTLPPSREEMTKNQVSLTCLVKGFYPSDIAVEWESNGQPENNYKTTPKVLDSDGSFFLYSKLTVDKSRWQQGNVFSCSVMHEALHNHYTQKSLSLSP
light: DIVMTQSPATLSLSPGERATLSCTSSQSVYHANWLSWFQQKPGQPPKLLIYWASTLAYGVPSRFSGSGSGTDFTLTISSLQPEDAATYYCAGGYGGGRYAFGQGTKVEIKRTVAAPSVFIFPPSDEQLKSGTASVVCLLNNFYPREAKVQWKVDNALQSGNSQESVTEQDSKDSTYSLSSTLTLSKADYEKHKVYACEVTHQGLSSPVTKSFNRGEC
On to B5, for which the “KD fold (SG1 = 1)” value in test [1] turned out to be 1.1 fold; in test [2], 0.02 fold; in test [3], 1.5 fold; in test [4], 0.05 fold; in test [5] it was 15.1 fold; in test [6] it was 0.5 fold. Further, the “KD fold (SG1 = 1)” value in test [7] worked out at 2.1 fold.
